Patent publication US6613506B1, “Compositions and methods for inhibiting human immunodeficiency virus infection by down-regulating human cellular genes” (Subsidiary No. 3, Inc., priority 2000, dated 2003)

Experiments:
HIV = experiment: Selection of GSEs from PBMC library using CEM-ss cells; type: cell-based
Experimental: A cell-derived random fragment library (RFL) was constructed using cDNA from peripheral blood mononuclear cells (PBMC). Four buffy coats were obtained from four healthy blood donors and PBMCs were purified by Ficoll gradient centrifugation followed by stimulation with PHA (1 μg/mL). Cells were removed at 5, 10, and 24 hours after the addition of PHA and total RNA was isolated by Trizol extraction. All time points from all donors were then pooled. Polyadenylated mRNA was purified from the total RNA by passages through an oligo-dT column. cDNA was synthesized from the polyadenylated RNA with random primers using the Gibco Superscript Choice system for cDNA Synthesis (Gibco BRL, Rockville, Md.). The cDNA was normalized using the PCR-Select cDNA Subtraction kit (Clontech, Palo Alto, Calif.) based on the suppression subtractive hybridization methods of Diatchenko et al. (1996, Proc. Natl. Acad. Sci. USA 93, 6025-6030, 1996). The primers used for the normalization were: […]
The normalized random fragments were digested with XhoI and Sse83871, purified on quick spin columns (available from Qiagen, Valencia, Calif.) and ligated into the SseI/XhoI site of a bicistronic retroviral vector, EMCVNgfrMPBIN. This vector was based on LXSNgfr as described in Dunn el al. (1999, Gene Therapy 6:130-137). Modifications included substitution of the Moloney murine leukemia virus LTR with the hybrid LTR described by Baum et al., 1995, (J. Virol. 69:7541-7547) and replacement of the SV40 promoter with encephalomyocarditis virus (EMCV) internal ribosomal entry site isolated from the plasmid, pCITE (available from Amersham, Arlington Heights, Ill.). The ligation mix was then transformed into competent cells. The total plasmid was purified from approximately 50 million clones.
The PBMC library was screened using the methods described above in Section 1F. A total of 14 GSEs were isolated using CEM-ss cells. […] The complement of SEQ ID NO:69 is represented by SEQ ID NO:70. CF-675 (SEQ ID NO:71) is another GSE that has substantial sequence identity with a gene encoding human translationally controlled tumor protein 1 (GenBank Accession No. HUMCH13C4A). The complement of SEQ ID NO:71 is represented by SEQ ID NO:72. CF-679 (SEQ ID NO:83) is another GSE that has substantial sequence identity with a gene encoding human translationally controlled tumor protein 1 (GenBank Accession No. HUMCH13C4A). The complement of SEQ ID NO:83 is represented by SEQ ID NO:84. […] The complement of SEQ ID NO:75 is represented by SEQ ID NO:76. […] The complement of SEQ ID NO:79 is represented by SEQ ID NO:80. […] The complement of SEQ ID NO:67 is represented by SEQ ID NO:68. […] The complement of SEQ ID NO:63 is represented by SEQ ID NO:64. CF-675 (SEQ ID NO:65) is another GSE that has substantial sequence identity with a gene encoding alpha enolase protein. The complement of SEQ ID NO:65 is represented by SEQ ID NO:66. […] The complement of SEQ ID NO:73 is represented by SEQ ID NO:74. […] The complement of SEQ ID NO:81 is represented by SEQ ID NO:82. […] The complement of SEQ ID NO:85 is represented by SEQ ID NO:86. […] The complement of SEQ ID NO:89 is represented by SEQ ID NO:90. […] The complement of SEQ ID NO:91 is represented by SEQ ID NO:92. […] The complement of SEQ ID NO:93 is represented by SEQ ID NO:94. Another member of the cluster is CF-686 (SEQ ID NO:95), also having substantial sequence identity with a gene encoding cell surface heparin binding protein (Liu et al., ibid.). The complement of SEQ ID NO:95 is represented by SEQ ID NO:96.

HIV-1IIIB = experiment: Selection of GSEs from HeLa cell library using productive infection of CEM-ss cells; type: cell-based
Experimental: Additionally, a normalized RFE library made from HeLa cells was transferred into CEM-ss cells and the neo resistant population was infected with TCID50 of 3000/10^6 cells of HIV-1IIIB. This RFE library was represented by 50×10^6 independent recombinant clones. Four and seven days after infection, a purified anti-CD4 monoclonal antibody, L77 (available from Becton Dickinson), was added at 5 Φg/mL to prevent syncytia formation. Syncytia formation is thought to be prevented by blocking the interaction between gp120 expressed on the surface of an infected cell and CD4 on the surface of an uninfected cell. […] At 10-12 days after infection, CD4^+, p24^− cell population representing uninfected cells were sorted. Genomic DNA from the CD4^+, p24^− cells was purified and used for PCR amplification of inserts with the vector-derived primers. The amplified mixture was digested with EcoRI and BamHI and cloned back into the retroviral vector. The selection was repeated for additional rounds.
The selection of GSEs from HeLa cell library using productive infection of CEM-ss cells isolated […] additional nucleic acid molecules which have substantial sequence identity with other cellular genes.
The selection of GSEs from a HeLa cell library using productive infection of CEM-ss cells isolated 21 additional nucleic acid molecules which have substantial sequence identity with other cellular genes. […] The complement of SEQ ID NO:25 is represented by SEQ ID NO:26. […] The complement of SEQ ID NO:27 is represented by SEQ ID NO:28. […] The complement of SEQ ID NO:29 is represented by SEQ ID NO:30. […] The complement of SEQ ID NO:31 is represented by SEQ ID NO:32. […] The complement of SEQ ID NO:33 is represented by SEQ ID NO:34. […] The complement of SEQ ID NO:35 is represented by SEQ ID NO:36. […] The complement of SEQ ID NO:37 is represented by SEQ ID NO:38. […] The complement of SEQ ID NO:39 is represented by SEQ ID NO:40. […] The complement of SEQ ID NO:41 is represented by SEQ ID NO:42. […] The complement of SEQ ID NO:43 is represented by SEQ ID NO:44. […] The complement of SEQ ID NO:45 is represented by SEQ ID NO:46. […] The complement of SEQ ID NO:47 is represented by SEQ ID NO:48. […] The complement of SEQ ID NO:49 is represented by SEQ ID NO:50. […] The complement of SEQ ID NO:51 is represented by SEQ ID NO:52. […] The complement of SEQ ID NO:53 is represented by SEQ ID NO:54. […] The complement of SEQ ID NO:55 is represented by SEQ ID NO:56. […] The complement of SEQ ID NO:57 is represented by SEQ ID NO:58. […] The complement of SEQ ID NO:59 is represented by SEQ ID NO:60. […] The complement of SEQ ID NO:61 is represented by SEQ ID NO:62. […] The complement of SEQ ID NO:77 is represented by SEQ ID NO:78. […] The complement of SEQ ID NO:87 is represented by SEQ ID NO:88. […] The complement of SEQ ID NO:99 is represented by SEQ ID NO:100. […] The complement of SEQ ID NO:101 is represented by SEQ ID NO:102. […] The complement of SEQ ID NO:103 is represented by SEQ ID NO:104. […] The complement of SEQ ID NO:105 is represented by SEQ ID NO: 106. […] The complement of SEQ ID NO:107 is represented by SEQ ID NO:108. […] The complement of SEQ ID NO:109 is represented by SEQ ID NO:110. […] The complement of SEQ ID NO:111 is represented by SEQ ID NO:112. […] The complement of SEQ ID NO:113 is represented by SEQ ID NO:114. […] The complement of SEQ ID NO:115 is represented by SEQ ID NO:116. […] The complement of SEQ ID NO:117 is represented by SEQ ID NO:118.

CF-693: GSE, SEQ ID NO:75, sense; NEF interacting protein gene (sense GATTCTCAGCTGGTAGCTGGTGTTGCATTCAAGAAGACTTTCTCTTACGCTGGGTT; listed as Homo sapiens)
HIV-suppressive activity of the GSE and active orientation (HIV): interferes with HIV replication in a sense orientation

B1: CF-685: GSE, SEQ ID NO:93, antisense; cell surface heparin binding protein gene (nucleic acid, listed as Homo sapiens)
antisense: TCGGGAGCCGCGGCTTATGGTGCAGACATGGCCAAGTCCAAGAACCACACCACACACAACCAGTCCCGAAAATGGCACAGAAATGGTATCAAGAAACCCCGAT
HIV-suppressive activity of the GSE and active orientation (HIV): interfere with HIV replication as an antisense molecule

B2: CF-684: GSE, SEQ ID NO:91, sense; human tumorous imaginal disc protein gene (nucleic acid, listed as Homo sapiens)
sense: AATCATTGTTTTTTCCTTTGTAAATGTTGATTCAGAAAAGGAAAGCACAGGCTAAGCAGTTGAAGGTTCCCCACCATTCAGTGAGAGCAG
HIV-suppressive activity of the GSE and active orientation (HIV): interferes with HIV replication in a sense orientation

B3: CF-676: GSE, SEQ ID NO:63, antisense; alpha enolase gene (nucleic acid, listed as Homo sapiens)
antisense: GTACAACCAGCTCCTCAGAATTGAAGAGGAGCTGGGCAGCAAGGCTAAGTTTGCCGGCAGGAACTTCAGAAACCCCTTGGCCAAGTAAGCTGTGGGCAGGCAAGCCCTTCGGTCACCTGTTGGCT
HIV-suppressive activity of the GSE and active orientation (HIV): interferes with HIV replication as an antisense molecule

B4: CF-527: GSE, SEQ ID NO:41; eukaryotic release factor 1 gene; acts through a peptide (nucleic acid, listed as Homo sapiens)
DNA: CGTTTAAGAATGGAAAAGCGACATAACTATGTTCGGAAAGTAGCAGAGACTGCTGTGCAGCTGTTTATTTCTGGGGACAAAGTGAATGTGGCTGGTCTAGTTTTAGCTGGATCCGCTC
modifications: chemistry not fully specified
notes: eukaryotic release factor 1 gene; acts through a peptide
HIV-suppressive activity of the GSE and active orientation (HIV-1IIIB): a peptide from which interferes with HIV replication

B5: CF-673: GSE, SEQ ID NO:73, antisense; BBC-1 gene (nucleic acid, listed as Homo sapiens)
antisense: TCATCACTGAGGAAGAGAAGAATTTCAAAGCCTTCGCTAGTCTCCGTATGGCCCGTGCCAACGCCCGGCTCTTCGGCACACGGGCAAAA
HIV-suppressive activity of the GSE and active orientation (HIV): interferes with HIV replication as an antisense molecule

B6: CF-653: GSE, SEQ ID NO:67, antisense; MIP-1 alpha gene (nucleic acid, listed as Homo sapiens)
antisense: CCCACATTCCGTCACCTGCTCAGAATCATGCAGGTCTCCACTGCTGCCCTTGCTGTCCTCCTCTGCACCATGGCTCTCTGCAACCAGTTCTCTGCATCACTTGCTGCTGACACG
HIV-suppressive activity of the GSE and active orientation (HIV): interferes with HIV replication as an antisense molecule

B7: CF-681: GSE, SEQ ID NO:85, antisense; FK506-binding protein A1 gene (nucleic acid, listed as Homo sapiens)
antisense: TGGGGGAAGGGTGCAGCAACGATTTCTCACCAAATCACTACACAGGACAGCAAAGGGGTGAGAAGGGGCTGAGGGAGGAAAAGCCAGGAAACTGAGATCAGCAGAGGGAGCCAAGCATCAAAAAACAGGAGATGCTGAAGCTGCGATGACCAGCATCATTTTCTTAAGAGAACATTCAAGGATTTGTCATGATGGCTGGGCTTTCACTTGGTGTTAAGTCTACAAACAGCACCTTCAATTGGAACTGTCAATTAAAGTTCTTAAGATTTAGGAAGTGGTGGAGCTTGGAAAGTTATGAGATTACAAAATTTCTGAAAGTC
HIV-suppressive activity of the GSE and active orientation (HIV): interferes with HIV replication as an antisense molecule

B8: CF-674: GSE, SEQ ID NO:69, sense; human translationally controlled tumor protein 1 gene (nucleic acid, listed as Homo sapiens)
sense: CTCTGTTCTTCAAGTTTCCCTTTGATTGATTTCATGTAATCTTTGATGTACTTCTTGTAGGCTTCTTTTGTGAAACTTGTTT
HIV-suppressive activity of the GSE and active orientation (HIV): interferes with HIV replication in a sense orientation

B9: CF-660: GSE, SEQ ID NO:79, antisense; human hsp90 chaperone protein gene (nucleic acid, listed as Homo sapiens)
antisense: GAGAGGGGGGATCTCATCAGGAACTGCAGCATTGGGTTCCTCTGCTGCCACTTCATCTTCATCAAT
HIV-suppressive activity of the GSE and active orientation (HIV): interferes with HIV replication as an antisense molecule
